In patent US20210046160A1 (Synthorx, Inc., priority 2019, published 2021):

Tests used:
[1] = molecular target: T1, IL-2 receptor αβγ complex (Homo sapiens, UniProt P01589+P14784+P31785); test: PathHunter IL-2 Cytokine Receptor assay, agonist mode, cell line further expressing IL-2Rα; format: cell-based; settings: IL2Rα-positive U2OS cell line; 10 kD PEGylated conjugates, * = 30 kD
T1 construct: host or cells: recombinant human U2OS cell line (PathHunter), further engineered to express IL-2Rα
T1 sequence (P01589 22-272): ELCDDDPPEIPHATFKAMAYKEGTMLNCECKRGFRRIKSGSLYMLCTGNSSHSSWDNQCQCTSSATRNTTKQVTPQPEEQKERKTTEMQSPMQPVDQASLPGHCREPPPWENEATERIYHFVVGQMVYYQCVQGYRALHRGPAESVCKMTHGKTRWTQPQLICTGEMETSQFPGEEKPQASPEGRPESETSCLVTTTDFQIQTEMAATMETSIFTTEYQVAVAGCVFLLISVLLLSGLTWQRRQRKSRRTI
T1 sequence (P14784 27-551): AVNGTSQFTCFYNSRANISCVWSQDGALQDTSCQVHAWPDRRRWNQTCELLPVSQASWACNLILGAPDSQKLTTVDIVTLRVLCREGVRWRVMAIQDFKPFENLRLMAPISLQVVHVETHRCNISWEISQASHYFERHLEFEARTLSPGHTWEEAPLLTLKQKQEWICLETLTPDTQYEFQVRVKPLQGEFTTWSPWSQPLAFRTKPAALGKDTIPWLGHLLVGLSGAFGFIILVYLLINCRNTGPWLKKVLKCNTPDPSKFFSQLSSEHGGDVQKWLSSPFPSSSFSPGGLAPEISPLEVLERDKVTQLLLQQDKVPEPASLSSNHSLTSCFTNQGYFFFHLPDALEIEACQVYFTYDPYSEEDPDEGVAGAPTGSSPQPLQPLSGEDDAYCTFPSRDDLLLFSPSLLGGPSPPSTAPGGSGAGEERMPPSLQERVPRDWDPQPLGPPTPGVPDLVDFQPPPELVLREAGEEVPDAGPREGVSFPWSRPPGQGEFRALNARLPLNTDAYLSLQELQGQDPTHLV
T1 sequence (P31785 23-369): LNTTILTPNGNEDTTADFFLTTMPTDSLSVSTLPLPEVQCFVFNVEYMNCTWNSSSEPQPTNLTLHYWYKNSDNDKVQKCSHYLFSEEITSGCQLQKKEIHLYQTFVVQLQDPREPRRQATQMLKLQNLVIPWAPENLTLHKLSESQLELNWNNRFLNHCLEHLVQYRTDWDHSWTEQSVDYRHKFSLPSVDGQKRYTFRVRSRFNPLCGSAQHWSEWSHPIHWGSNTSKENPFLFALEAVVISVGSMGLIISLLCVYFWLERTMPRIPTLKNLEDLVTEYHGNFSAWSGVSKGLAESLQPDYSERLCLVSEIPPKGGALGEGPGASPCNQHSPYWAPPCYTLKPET
Experimental: (§1) PathHunter cell lines were expanded from freezer stocks according to standard procedures. Cells were seeded in a total volume of 20 μL into white walled, 384-well microplates and incubated for the appropriate time prior to testing.
(§2) For agonist determination, cells were incubated with sample to induce response. Intermediate dilution of sample stocks was performed to generate 5× sample in assay buffer. About 5 μL of 5× sample was added to cells and incubated at 37° C. for 6 to 16 hours depending on the assay. Vehicle concentration was 1%.
(§3) Assay signal was generated through a single addition of 12.5 or 15 μL (50% v/v) of PathHunter Detection reagent cocktail for agonist and antagonist assays respectively, followed by a one hour incubation at room temperature. For some assays, activity was detected using a high sensitivity detection reagent (PathHunter Flash Kit) to improve assay performance. In these assays, an equal volume of detection reagent (25 or 30 μL) was added to the wells, followed by a one hour incubation at room temperature. Microplates were read following signal generation with a PerkinElmer Envision™ instrument for chemiluminescent signal detection.
(§4) Compound activity was analyzed using CBIS data analysis suite (ChemInnovation, CA). For agonist mode assays, percentage activity was calculated using the following Formula:
(§5) % Activity=100%×(mean RLU of test sample−mean RLU of vehicle control)/(mean MAX RLU control ligand−mean RLU of vehicle control).
(§6) A second cell line has been further engineered to express the IL-2Rα subunit. […] The assay was run in agonist mode to determine the EC50 of each test article, and comparison of dose-response curve profiles between IL2Rα positive and negative cell types allows determination of the contribution of IL2Rα to the observed activity.

[2] = molecular target: T2, IL-2 receptor βγ complex (IL-2Rβ and IL-2Rγ subunits) (Homo sapiens, UniProt P14784+P31785); test: PathHunter IL-2 Cytokine Receptor assay, agonist mode, βγ cell line; format: cell-based; settings: for EC50: IL2Rα-negative U2OS cell line, 10 kD PEGylated conjugates, * = 30 kD; for βγ/αβγ ratio: ratio of the EC50 values
T2 construct: host or cells: recombinant human U2OS cell line (PathHunter)
T2 sequence (P14784 27-551): T1 sequence (P14784 27-551)
T2 sequence (P31785 23-369): T1 sequence (P31785 23-369)
Experimental: as §1, §2, §3, §4, §5, §6

[3] = test system: pSTAT5 and proliferation in CD8+ T, NK and Treg cells; test: Pharmacodynamics in peripheral blood compartment (pSTAT5, Ki-67, cell counts), Example 5; format: in vivo, C57BL/6 mice; settings: mice
Source text: (§7) Terminal blood samples were collected via cardiac puncture at the points indicated. […] Plasma and blood cells (in both studies) and tumors in study E3826-U1803 were collected for PK and PD analyses.
STAT5 phosphorylation and induction of cell proliferation (the early molecular marker Ki-67 and cell counts) was used as pharmacodynamics readouts to assess the pharmacological profile of P65_30kD relative to its pharmacokinetics.

[4] = MTD / toxicology study E3826-U1802 in naïve Balb/c mice (hematology, histopathology, organ weight, cytokines); format: in vivo; settings: Balb/c mice
Experimental: A dose ranging study of P65_30kD was conducted in naïve female Balb/c mice at Crown Biosciences, Inc. (San Diego, Calif.). […] Blood samples were drawn via sub mandibular vein at 8 time points (0.25, 1, 4, 12, 24, 34, 48 & 72 h).
A major of toxicity associated with high-dose aldesleukin is vascular leak syndrome and associated Cytokine Release Syndrome (CRS). […] The analysis performed was hematology, histopathology, organ weight, and cytokine analyses.

[5] = PK study E3826-U1704 in naïve C57BL/6 mice (human IL-2 ELISA of plasma); format: in vivo; settings: for t½: 0.3 mg/kg
Experimental: as §7
Bioanalysis of plasma samples was performed using a qualified human IL-2 ELISA assay (Abcam, Cambridge, UK). Concentrations of Aldesleukin, E62_30kD and P65_30kD and the internal standard in samples derived from plasma were determined using an ELISA assay. […] The PK data were imported into Phoenix WinNonlin v6.4 (Certara/Pharsight, Princeton, N.J.) for analysis. The group mean plasma concentration versus time data were analyzed with noncompartmental methods using an IV bolus administration model.

[6] = C57BL/6 female mice, single IV bolus 0.3 mg/kg, E62_5 kD from a separate study

| Substance | EC50 [1] | EC50 [2] | βγ/αβγ ratio [2] | other results |
| --- | --- | --- | --- | --- |
| E62: Table 2: 10 kD PEGylated IL-2 conjugate at site E62 [Compound E62] | 1.5 nM | 3 nM | 2 |  |
| E68: Table 2: 10 kD PEGylated IL-2 conjugate at site E68 [Compound E68] | 0.0893 nM | 7.7 nM | 86 |  |
| F42: Table 2: 10 kD PEGylated IL-2 conjugate at site F42 [Compound F42] | 0.515 nM | 6.09 nM | 12 |  |
| K35: Table 2: 10 kD PEGylated IL-2 conjugate at site K35 [Compound K35] | 0.15 nM | 6.75 nM | 45 |  |
| K43: Table 2: 10 kD PEGylated IL-2 conjugate at site K43 [Compound K43] | 0.131 nM | 9.84 nM | 75 |  |
| R38: Table 2: 10 kD PEGylated IL-2 conjugate at site R38 [Compound R38] | 0.165 nM | 4.16 nM | 25 |  |
| T41: Table 2: 10 kD PEGylated IL-2 conjugate at site T41 [Compound T41] | 0.0489 nM | 6.37 nM | 130 |  |
| V69: Table 2: 30 kD PEGylated IL-2 conjugate at site V69 [Compound V69] | 0.083 nM | 9.99 nM | 121 |  |
| Y45: Table 2: 30 kD PEGylated IL-2 conjugate at site Y45 [Compound Y45] | 0.11 nM | 9.06 nM | 83 |  |
| aldesleukin [reference compound] |  |  |  | pSTAT5 induction returned to baseline after [3]: 2 h; systemic levels of IFNγ [4]: transient elevation; plasma IL-5 levels ([4]; dose range 0.01-5.0 mg/kg): elevated plasma IL-5 levels starting at 1 mg/kg to 5 mg/kg; hematology, histopathology or body weights relative to vehicle control ([4]; P65_30kD single IV 0.01-5.0 mg/kg, aldesleukin IV BID × 3): Abnormalities were not observed; AUC0-t [5, 6]: 229 ng·h/mL; AUCINF [5, 6]: 230 ng·h/mL; CL [5, 6]: 21.67 mL/min/kg; Cmax [5, 6]: 884 ng/mL; Tmax [5, 6]: 1.8 min; Vss (distribution volume) [5, 6]: 0.39 L/kg; t½ [5, 6]: 34.4 min; t½ ([5]; C57BL/6 female mice, single IV bolus 0.3 mg/kg, E62_5 kD from a separate study, listed as aldesleukin): 34.2 min; mean plasma concentrations measurable out to (post-dose) ([5]; single IV bolus, 120 h = last measured time point): 4 h |
